# Data published in patent US20150267232A1, “IN VIVO AND IN VITRO CARBENE INSERTION AND NITRENE TRANSFER REACTIONS CATALYZED BY HEME ENZYMES” (California Institute of Technology, priority 2012, published 2015).
# Residue numbers refer to the chain shown, from its start. Names may count otherwise.
# B1: WT F87A: P450BM3 variant: F87A (protein, listed as Bacillus megaterium)
# chain: TIKEMPQPKTFGELKNLPLLNTDKPVQALMKIADELGEIFKFEAPGRVTRYLSSQRLIKEACDESRFDKNLSQALKFVRDFAGDGLATSWTHEKNWKKAHNILLPSFSQQAMKGYHAMMVDIAVQLVQKWERLNADEHIEVPEDMTRLTLDTIGLCGFNYRFNSFYRDQPHPFITSMVRALDEAMNKLQRANPDDPAYDENKRQFQEDIKVMNDLVDKIIADRKASGEQSDDLLTHMLNGKDPETGEPLDDENIRYQIITFLIAGHETTSGLLSFALYFLVKNPHVLQKAAEEAARVLVDPVPSYKQVKQLKYVGMVLNEALRLWPTAPAFSLYAKEDTVLGGEYPLEKGDELMVLIPQLHRDKTIWGDDVEEFRPERFENPSAIPQHAFKPFGNGQRACIGQQFALHEATLVLGMMLKHFDFEDHTNYELDIKETLTLKPEGFVVKAKSKKIPLGGIPSPSTEQSAKKVRKKAENAHNTPLLVLYGSNMGTAEGTARDLADIAMSKGFAPQVATLDSHAGNLPREGAVLIVTASYNGHPPDNAKQFVDWLDQASADEVKGVRYSVFGCGDKNWATTYQKVPAFIDETLAAKGAENIADRGEADASDDFEGTYEEWREHMWSDVAAYFNLDIENSEDNKSTLSLQFVDSAADMPLAKMHGAFSTNVVASKELQQPGSARSTRHLEIELPKEASYQEGDHLGVIPRNYEGIVNRVTARFGLDASQQIRLEAEEEKLAHLPLAKTVSVEELLQYVELQDPVTRTQLRAMAAKTVCPPHKVELEALLEKQAYKEQVLAKRLTMLELLEKYPACEMKFSEFIALLPSIRPRYYSISSSPRVDEKQASITVSVVSGEAWSGYGEYKGIASNYLAELQEGDTITCFISTPQSEFTLPKDPETPLIMVGPGTGVAPFRGFVQARKQLKEQGQSLGEAHLYFGCRSPHEDYLYQEELENAQSEGIITLHTAFSRMPNQPKTYVQHVMEQDGKKLIELLDQGAHFYICGDGSQMAPAVEATLMKSYADVHQVSEADARLWLQQLEEKGRYAKDVWAG
# modifications: cytochrome P450NADPH-P-450 reductase precursor, cytochrome P450 (BM3), CYP102A1
# B2: WT T88L: P450BM3 variant: T88L (protein, listed as Bacillus megaterium)
# chain: B1 chain with A87F, T88L
# modifications: cytochrome P450NADPH-P-450 reductase precursor, cytochrome P450 (BM3), CYP102A1
# B3: CYP102A3: CYP102A3, related P450 from Bacillus subtilis (protein, UniProt O08336 1-1054, looked up)
# Bifunctional cytochrome …: MKQASAIPQPKTYGPLKNLPHLEKEQLSQSLWRIADELGPIFRFDFPGVSSVFVSGHNLVAEVCDEKRFDKNLGKGLQKVREFGGDGLFTSWTHEPNWQKAHRILLPSFSQKAMKGYHSMMLDIATQLIQKWSRLNPNEEIDVADDMTRLTLDTIGLCGFNYRFNSFYRDSQHPFITSMLRALKEAMNQSKRLGLQDKMMVKTKLQFQKDIEVMNSLVDRMIAERKANPDENIKDLLSLMLYAKDPVTGETLDDENIRYQIITFLIAGHETTSGLLSFAIYCLLTHPEKLKKAQEEADRVLTDDTPEYKQIQQLKYIRMVLNETLRLYPTAPAFSLYAKEDTVLGGEYPISKGQPVTVLIPKLHRDQNAWGPDAEDFRPERFEDPSSIPHHAYKPFGNGQRACIGMQFALQEATMVLGLVLKHFELINHTGYELKIKEALTIKPDDFKITVKPRKTAAINVQRKEQADIKAETKPKETKPKHGTPLLVLFGSNLGTAEGIAGELAAQGRQMGFTAETAPLDDYIGKLPEEGAVVIVTASYNGAPPDNAAGFVEWLKELEEGQLKGVSYAVFGCGNRSWASTYQRIPRLIDDMMKAKGASRLTAIGEGDAADDFESHRESWENRFWKETMDAFDINEIAQKEDRPSLSITFLSEATETPVAKAYGAFEGIVLENRELQTAASTRSTRHIELEIPAGKTYKEGDHIGILPKNSRELVQRVLSRFGLQSNHVIKVSGSAHMAHLPMDRPIKVVDLLSSYVELQEPASRLQLRELASYTVCPPHQKELEQLVSDDGIYKEQVLAKRLTMLDFLEDYPACEMPFERFLALLPSLKPRYYSISSSPKVHANIVSMTVGVVKASAWSGRGEYRGVASNYLAELNTGDAAACFIRTPQSGFQMPNDPETPMIMVGPGTGIAPFRGFIQARSVLKKEGSTLGEALLYFGCRRPDHDDLYREELDQAEQDGLVTIRRCYSRVENEPKGYVQHLLKQDTQKLMTLIEKGAHIYVCGDGSQMAPDVERTLRLAYEAEKAASQEESAVWLQKLQDQRRYVKDVWTGM
# B4: 9-10A TS: V78A, P142S, T175I, A184V, S226R, H236Q, E252G, A290V, L353V, I366V, E442K (protein, listed as Bacillus megaterium)
# chain: TIKEMPQPKTFGELKNLPLLNTDKPVQALMKIADELGEIFKFEAPGRVTRYLSSQRLIKEACDESRFDKNLSQALKFARDFAGDGLFTSWTHEKNWKKAHNILLPSFSQQAMKGYHAMMVDIAVQLVQKWERLNADEHIEVSEDMTRLTLDTIGLCGFNYRFNSFYRDQPHPFIISMVRALDEVMNKLQRANPDDPAYDENKRQFQEDIKVMNDLVDKIIADRKARGEQSDDLLTQMLNGKDPETGEPLDDGNIRYQIITFLIAGHETTSGLLSFALYFLVKNPHVLQKVAEEAARVLVDPVPSYKQVKQLKYVGMVLNEALRLWPTAPAFSLYAKEDTVLGGEYPLEKGDEVMVLIPQLHRDKTVWGDDVEEFRPERFENPSAIPQHAFKPFGNGQRACIGQQFALHEATLVLGMMLKHFDFEDHTNYELDIKETLTLKPKGFVVKAKSKKIPLGGIPSPSTEQSAKKVRKKAENAHNTPLLVLYGSNMGTAEGTARDLADIAMSKGFAPQVATLDSHAGNLPREGAVLIVTASYNGHPPDNAKQFVDWLDQASADEVKGVRYSVFGCGDKNWATTYQKVPAFIDETLAAKGAENIADRGEADASDDFEGTYEEWREHMWSDVAAYFNLDIENSEDNKSTLSLQFVDSAADMPLAKMHGAFSTNVVASKELQQPGSARSTRHLEIELPKEASYQEGDHLGVIPRNYEGIVNRVTARFGLDASQQIRLEAEEEKLAHLPLAKTVSVEELLQYVELQDPVTRTQLRAMAAKTVCPPHKVELEALLEKQAYKEQVLAKRLTMLELLEKYPACEMKFSEFIALLPSIRPRYYSISSSPRVDEKQASITVSVVSGEAWSGYGEYKGIASNYLAELQEGDTITCFISTPQSEFTLPKDPETPLIMVGPGTGVAPFRGFVQARKQLKEQGQSLGEAHLYFGCRSPHEDYLYQEELENAQSEGIITLHTAFSRMPNQPKTYVQHVMEQDGKKLIELLDQGAHFYICGDGSQMAPAVEATLMKSYADVHQVSEADARLWLQQLEEKGRYAKDVWAG
# modifications: cytochrome P450NADPH-P-450 reductase precursor, cytochrome P450 (BM3), CYP102A1
# notes: V78A, P142S, T175I, A184V, S226R, H236Q, E252G, A290V, L353V, I366V, E442K
# B5: 9-10A TS F87A: 9-10A TS + F87A (protein, listed as Bacillus megaterium)
# chain: B4 chain with F87A
# modifications: cytochrome P450NADPH-P-450 reductase precursor, cytochrome P450 (BM3), CYP102A1
# B6: WT A328V: P450BM3 variant: A328V (protein, listed as Bacillus megaterium)
# chain: B1 chain with A87F, A328V
# modifications: cytochrome P450NADPH-P-450 reductase precursor, cytochrome P450 (BM3), CYP102A1
# Assay: P450BM3 compilation plate screen (GC, cyclopropane peaks)
# Format: biochemical
# Settings: (R,S)-(S,R); chimeric P450s
row,Molecule,ee (cis)
1,B1,56

# Same assay, conditions: (R,S)-(S,R); chiral β-CDX GC; P450BM3 variants
row,Molecule,ee (cis)
1,B1,57
2,B2,23
3,B3,−8
4,B4,−54
5,B5,5

# Same assay, conditions: ([cis] − [trans])/([cis] + [trans]); chimeric P450s
row,Molecule,de
1,B1,−28

# Same assay, conditions: diastereomeric excess = ([cis] − [trans])/([cis] + [trans]); P450BM3 variants
row,Molecule,de
1,B1,−28
2,B2,−78
3,B6,−100
4,B3,−74
5,B4,−75
6,B5,−60

# Same assay, conditions: sum of the area of the cyclopropane peaks over the area of the internal standard; P450BM3 variants
row,Molecule,Absolute activity
1,B1,0.001704
2,B2,0.004522
3,B6,0.00083
4,B3,0.004053
5,B4,0.00192
6,B5,0.001546

# Same assay, conditions: sum of the area of the cyclopropane peaks over the area of the internal standard; chimeric P450s
row,Molecule,Absolute activity
1,B1,0.001704
